Experimental data as given in paper PMC5362816, “Calmodulin is responsible for Ca^2+-dependent regulation of TRPA1 Channels” (Scientific Reports, 2017).

Columns and labels:
CaM-agarose (Sigma) = biological target: T1, CaM-agarose (Sigma) (UniProt P62157 1-149, coupled to agarose); test: pull-down; competition: purified GST-C1A1 fragment on CaM-agarose with 200 μM peptide (CaMBD peptide, scrambled peptide or CALP2); settings: both partners purified
T1 construct: calmodulin coupled to agarose, bought from Sigma; Commercial reagent; also called calmodulin; source: bought: Sigma (CaM-agarose)

pure CaM (Sigma) = biological target: T2, pure CaM (Sigma) (UniProt P62157 1-149); test: native gel or EMSA; 600 nM CaM incubated with different molar ratios of peptide; 10 mM Na-HEPES pH 7.2, 2 mM Ca2+, room temperature, 1 h; 12% non-denaturing PAGE with 2 mM Ca2+; silver staining (read-out: CaM band intensity, no mobility shift); settings: both partners purified
T2 construct: pure calmodulin bought from Sigma; also called calmodulin; source: bought: Sigma

binding result (CaM-agarose (Sigma)): binds
binding result (pure CaM (Sigma)): binds
B1: CaMBD peptide (peptide)
peptide: LWYLRKVDQRSTIVYPN
notes: also called WT peptide; the 17AA; source: synthetic peptide (Biomatik)
